Test results published in patent US20210284749A1 (ABL BIO, published 2021).
Where “and” joins values, the source holds several entries; their conditions need not be identical. Identical values can stand only once.

T1: recombinant human BCMA (ELISA antigen, construct not specified) (human, UniProt Q02223 1-54)
T1 construct: Fc 1-51; Fc/His 1-51; Fc 4-48) was coated in these ELISAs; also called recombinant BCMA; recombinant protein
T1 sequence: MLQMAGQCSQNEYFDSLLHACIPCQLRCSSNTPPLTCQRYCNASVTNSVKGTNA

T2: mouse BCMA (1-49) fused to the Fc region of human IgG1 (mouse; human, UniProt O88472 1-49)
T2 construct: Sino Biological Inc. 50076-M01H; also called 50076-M01H; not shown: Fc region of human IgG1
T2 chain: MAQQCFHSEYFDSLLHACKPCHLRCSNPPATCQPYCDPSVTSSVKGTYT

T3: rat BCMA (1-49) fused to the Fc region of human IgG1 (rat; human)
T3 construct: Sino Biological Inc. 80156-R01H; also called 80156-R01H; not shown: Fc region of human IgG1
T3 chain: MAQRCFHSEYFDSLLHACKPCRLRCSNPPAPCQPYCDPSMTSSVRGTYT

T4: human BCMA-Fc/His (1-51) (human, UniProt Q02223 1-51)
T4 construct: also called recombinant human BCMA-Fc/His; recombinant human BCMA-His (Sino Biological Inc.); not shown: Fc region; C-terminal His tag
T4 sequence: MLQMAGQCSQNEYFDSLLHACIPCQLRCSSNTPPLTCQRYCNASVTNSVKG


Key:
[1] = target: T1, recombinant human BCMA (ELISA antigen, …); assay: ELISA on recombinant BCMA
[2] = target: T2, mouse BCMA (1-49) fused to the Fc …; assay: ELISA, 100 ng coated antigen
[3] = target: T3, rat BCMA (1-49) fused to the Fc region …; assay: ELISA, 100 ng coated antigen
human BCMA-Fc/His (1-51) = target: T4, human BCMA-Fc/His (1-51); assay: BLI (Octet), antigen on Ni-NTA biosensor, IgG in solution
Summary of the method: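 Human BCMA-Fc/His loaded at 5 μg/ml onto Ni-NTA biosensors to a 0.5–1.0 nm threshold, with antibody in solution. Association 5 min, dissociation 20 min, 30° C, 1XKB buffer. kon, kdis and KD derived in Octet analysis.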

[4] = target: T3, rat BCMA (1-49) fused to the Fc region …; assay: ELISA on 100 ng coated rat BCMA, antibody titrated, anti-human Fab HRP, absorbance 450 nm
Experimental: (§1) 100 ng of human, monkey, mouse, and rat BCMA antigens prepared in Example 1.1 were coated on the bottom of the plate, and then coated with 3% BSA to block nonspecific binding. Using the selected anti-BCMA IgG antibodies as primary antibodies, and the anti-human Fab HRP (1:20000 dilution) as a secondary antibody, ELISA assay was performed as described in Example 1.3.
(§2) Absorbancies at 450 nm measured with a microplate reader are shown in FIG. 3, and half maximal effective concentrations (EC₅₀) (nM) are shown in Table 9.

[5] = target: T1, recombinant human BCMA (ELISA antigen, …); assay: ELISA on 100 ng coated human BCMA, antibody titrated, anti-human Fab HRP, absorbance 450 nm
Experimental: as §1, §2

[6] = target: T1, recombinant human BCMA (ELISA antigen, …); assay: ELISA on coated recombinant human BCMA, antibody titrated, HRP anti-Fab detection, absorbance 450 nm
Experimental: Specific binding abilities of the anti-BCMA IgG antibodies isolated in Example 1.4 to recombinant BCMA protein were analyzed by ELISA.
Using recombinant human BCMA or monkey BCMA as an antigen, and HRP-conjugated Fab polychronal antibody reagent (Pierce, 31414) as a secondary antibody, ELISA was performed as described in Example 1.3.

Row | Binder | EC50 [1] | EC50 [2] [nM] | EC50 [3] [nM] | Kd (human BCMA-Fc/His (1-51)) [nM] | koff (human BCMA-Fc/His (1-51)) [s⁻¹] | kon (human BCMA-Fc/His (1-51)) [M⁻¹ s⁻¹] | EC50 (read off the curve) [4] [µg/mL] | EC50 (read off the curve) [5] [µg/mL] | EC50 (read off the curve) [6] [µg/mL] | binding result [4]
1 | anti-BCMA IgG antibody 5D5 (antibody, V domains shown, also called 5D5 WT; 5D5 antibody) VH: EVQLLESGGGLVQPGGSLRLSCAASGFTFSDYGLSWVRQAPGKGLEWVSLIDSSGSSTFYADSVKGRFTISRDNSKNTLYLQMNSLRAEDTAVYYCAKEHGLFDSWGQGTLVTVSS VL: EIVLTQSPGTLSLSPGERATLSCKASQDIDDDINWYQQKPGQAPRLLIYDASLRATGIPDRFSGSGSGTDFTLTISRLEPEDFAVYYCQQSLRTPITFGQGTKLEIKR | 0.0708 nM and 0.0652 nM | 150 | 98 | 0.114 | 0.000105 | 919000 | ~0.02 | ~0.01 | ~0.1 | –
2 | anti-BCMA IgG antibody 5A6 (antibody, V domains shown, also called 5A6 WT; 5A6 antibody) VH: EVQLLESGGGLVQPGGSLRLSCAASGFTFSNYGVHWVRQAPGKGLEWVSYISYSGGTYYNPSLKSRFTISRDNSKNTLYLQMNSLRAEDTAVYYCARDSDDFGFDYWGQGTLVTVSS VL: QSVLTQPPSASGTPGQRVTISCQGDSLRSYYVNWYQQLPGTAPKLLIYDHSKRPTGVPDRFSGSKSGTSASLAISGLRSEDEADYYCQSYDSSTVVFGGGTKLTVLG | 0.0631 nM and 0.0643 nM and 0.077 nM | – | – | 0.0212 | 1.08e-05 | 509000 | – | ~0.02 | ~0.1 | no binding (tested: about 30 µg/ml)
